Molecular target: T1, human GDNF family receptor alpha-1 (GFRα1) joined to an Fc domain at its C-terminus (human, UniProt P56159-2 25-445)
T1 construct: Bought from R&D Systems; also called GFRa1-hFc; human GFRα1 Fc chimera (R&D Systems); not shown: human Fc domain joined to the C-terminus of GFRα1
T1 sequence (looked up): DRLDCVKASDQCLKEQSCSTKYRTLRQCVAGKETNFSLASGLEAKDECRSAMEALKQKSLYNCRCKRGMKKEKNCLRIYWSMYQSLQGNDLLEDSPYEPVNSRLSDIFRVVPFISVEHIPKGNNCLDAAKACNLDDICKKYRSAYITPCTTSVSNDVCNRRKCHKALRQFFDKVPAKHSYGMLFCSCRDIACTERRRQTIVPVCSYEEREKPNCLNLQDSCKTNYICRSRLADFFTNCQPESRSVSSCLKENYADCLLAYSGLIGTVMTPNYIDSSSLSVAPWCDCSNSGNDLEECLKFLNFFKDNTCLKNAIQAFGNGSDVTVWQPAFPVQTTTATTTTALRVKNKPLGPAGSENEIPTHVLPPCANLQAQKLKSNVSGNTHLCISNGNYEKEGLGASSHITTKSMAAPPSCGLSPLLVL
Assay: SPR; GFRα1-Fc chimera captured on CM5 chip by His-tag capture kit, analyte flowed over; apparent KD (KD,app)
From the text: Surface Plasmon Resonance (SPR) was used to determine the binding affinities of the GDNF fusion polypeptides to GFRα1. The GDNF fusion polypeptides in this example include fusion polypeptides 2-4 as described in Example 1, as well as Fc (T366W)-GGG-hGDNF₁₁₇₋₂₁₁ (SEQ ID NO: 37) (fusion polypeptide 6) which has an Fc domain having the amino acid substitution T366W (relative to the sequence of human IgG1) joined to the N-terminus of the GDNF variant having amino acids 117-211 of SEQ ID NO: 1 through a GGG linker. The SPR assay was configured to capture human GFRα1, GFRα2, and GFRα3 Fc chimeras (R&D Systems) onto a CM5 chip surface using His-tag capture kit (GE Healthcare) to appropriate levels for kinetic analysis. GDNF fusion polypeptides were flowed over the immobilized GFRs to measure the kinetics of GDNF fusion polypeptide and GFR association and dissociation. The binding of various concentrations of GDNF fusion polypeptides was measured in HBS-EP buffer (GE Healthcare) at a flow rate of 30 μL/min. Binding curves were fitted using Scrubber2 software to obtain apparent binding affinities and kinetic constants.

- Kd: ~0.9 nM
B1: R&D hGDNF (ligand, human, UniProt P39905 78-211, looked up)
chain: SPDKQMAVLPRRERNRQAAAANPENSRGKGRRGQRGKNRGCVLTAIHLNVTDLGLGYETKEELIFRYCSGSCDAAETTYDKILKNLSRNRRLVSDKVGQACCRPIAFDDDLSFLDDNLVYHILRKHSAKRCGCI
notes: also called human glial-derived neurotrophic factor
